Results on 13 molecules are retold here after patent US20250179196A1 (Janssen / Centocor, published 2025).

The target in experiment [1] is T1, human IL-23R expressed on the cell surface of stably transfected iLite and HEK cell lines (human, UniProt Q5VWK5 24-629).
T1 construct: whole, on cells; Same receptor on two transfected cell lines; the cell line is named under assay; also called human IL-23R iLite cells; human IL-23R HEK cells
T1 sequence (looked up): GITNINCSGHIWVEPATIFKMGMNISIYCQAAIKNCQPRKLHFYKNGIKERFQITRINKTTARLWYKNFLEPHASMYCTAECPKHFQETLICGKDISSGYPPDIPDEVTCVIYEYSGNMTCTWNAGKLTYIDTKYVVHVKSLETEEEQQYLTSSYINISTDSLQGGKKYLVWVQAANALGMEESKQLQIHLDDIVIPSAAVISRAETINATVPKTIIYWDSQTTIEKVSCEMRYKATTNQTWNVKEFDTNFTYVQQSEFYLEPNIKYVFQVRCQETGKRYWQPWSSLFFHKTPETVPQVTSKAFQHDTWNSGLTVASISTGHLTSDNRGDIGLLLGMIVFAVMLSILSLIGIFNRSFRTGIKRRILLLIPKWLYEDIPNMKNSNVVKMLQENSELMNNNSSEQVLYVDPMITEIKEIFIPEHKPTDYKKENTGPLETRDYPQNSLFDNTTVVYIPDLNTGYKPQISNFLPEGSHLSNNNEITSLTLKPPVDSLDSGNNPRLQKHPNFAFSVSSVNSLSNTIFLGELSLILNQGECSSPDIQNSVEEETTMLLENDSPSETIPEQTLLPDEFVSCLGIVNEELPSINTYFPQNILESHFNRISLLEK
Briefly: flow cytometry on human IL-23R HEK cells, Expt E (11-point, 384well). The procedure, abridged: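 Antibody bound to HEK-IL-23R cells 30 min at 37 °C over 11 concentrations; after washes, Sytox Green added and cells run on iQue. Geometric MFI of 647 detection antibody on single viable cells fitted by variable-slope dose–response.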

The target of experiment [2] is T1, human IL-23R expressed on the cell …. The experiment can be described thus: flow cytometry on human IL-23R HEK cells, Expt D (8-point, 96well). The procedure, abridged:
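Serially diluted IL-23R mAbs bound to mixed HEK-IL-23R and parental HEK cells for 30 min at 37 °C, in duplicate. After washes, 647 detection antibody geometric MFI measured on single viable (Sytox Green-negative) cells and fitted to a variable-slope dose-response against log mAb concentration.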
In general terms: Flow cytometry measures light scatter and fluorescence of single cells or particles in a stream.

Experiment [3] deals with T2, human IL-23R extracellular domain (ECD) protein (human, UniProt Q5VWK5 24-355).
T2 construct: Recombinant ECD; also called hu IL-23R ECD
T2 sequence: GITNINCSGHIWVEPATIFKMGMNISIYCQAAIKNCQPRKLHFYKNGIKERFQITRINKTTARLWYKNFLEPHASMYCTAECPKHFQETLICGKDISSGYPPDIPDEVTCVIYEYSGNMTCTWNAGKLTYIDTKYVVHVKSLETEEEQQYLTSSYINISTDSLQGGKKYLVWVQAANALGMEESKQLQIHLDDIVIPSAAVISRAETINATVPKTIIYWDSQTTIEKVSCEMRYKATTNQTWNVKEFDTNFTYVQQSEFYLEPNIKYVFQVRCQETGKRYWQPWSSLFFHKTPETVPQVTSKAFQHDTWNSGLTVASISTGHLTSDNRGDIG
The experiment can be described thus: column 'Affinity to hu IL-23R ECD' (summary of SPR data).

Experiment [4] concerns the target T1, human IL-23R expressed on the cell …. Briefly: flow cytometry on human IL-23R HEK cells, Expt D (8-point, 96well); legend: N-No cell binding observed. Here is the method: HEK-IL-23R cell concentration response mAb binding (8-point, 96-well assay). […] HEK-IL-23R and HEK-parental cells (12.5 μL of each, 120000 cells total) were plated in 2× replicate on 96-well V-bottom plates (Corning, Cat #3357) into 37° C. warmed Assay medium containing serially diluted IL-23R mAbs to a final volume of 150 μL. IL-23R mAbs were allowed to bind to cells for 30 minutes, at 37° C. […] Cells were next washed twice in ice-cold stain buffer, then resuspended in a final volume of 30 μL with Sytox Green viability dye (ThermoFisher, Cat #S7020). Plates were kept on ice until run for analysis on the iQue. All washes were performed by centrifugation (800 rcf, 3 minutes) followed by flick decantation to remove supernatants. Cell-binding to HEK-IL-23R cells was measured with FlowJo, by gating for single, viable cells and determining the geometric mean fluorescence intensity (MFI) for the 647 detection antibody. Geometric mean fluorescence intensities were plotted over log mAb concentrations fitted with a dose response curve with variable slope using GraphPad Prism.

Experiment [5] shares this target. The experiment can be described thus: flow cytometry on human IL-23R iLite cells, Expt A (1-point). Here is the method:
Human IL-23R iLiTe cell single concentration mAb Binding. Anti-IL-23R mouse IgG₂ₐ mAbs derived from phage panning were tested for binding to human IL-23R expressing iLiTe cells, where a PE conjugated anti mouse secondary antibody detected mAbs bound to the receptor on the cells. […] The next day 100,000 cells were added to each well of a 96 well V bottom plate (Costar, Catalog #3357), centrifuged at 450× gravity for 2 minutes, and then supernatants were decanted. […] Antibodies diluted to 3 μg/mL in Stain Buffer (BSA) (BD Pharmagen, Catalog #554657) were added at 100 μL/well and incubated on ice for 50 minutes, then plates were centrifuged and supernatants were decanted. […] Cells were washed by adding 100 μL/well of Stain Buffer followed by centrifugation and decanting of the supernatants. Cells were resuspended in 100 μL/well of Stain Buffer and analyzed on the Becton Dickenson LSR II FACS instrument with HTS module. Data was analyzed using FlowJo software (Treestar) to obtain geometric mean fluorescence intensities.

Positions count from the first letter of the chain named.

B1: I23RB85 (antibody, mouse IgG2a, kappa, V domains shown)
VH: DVQLQESGPGLVAPSQSLSITCTVSGFSFNTYAITWVRQPPGRGLEWLGVLWPGGGISYNLALKSRLTISRDSSKSQVFLEMNSLQTDDTARYYCARNWRHYDGSYAMDFWGQGTSVTVSS
VL: DIVLTQSPLSLFVSLGDQASISCRSSQSLVHSNGNTYLHWYLQKPGQSPKLLIYKVSNRFSGVPDRFSGSGSGTDFTLKISRVEAEDLGVYFCSQSTHVPWTFGGGTRLEIKR
notes: immunization; mouse IgG2a/kappa
Usually EC50 stands for the concentration needed to bring the measured effect to its halfway point. Read a high EC50 as a less potent agent. As usually defined, the Kd is the equilibrium constant for the complex coming apart. A high value points to lower affinity. Turning to B1, the EC50 in experiment [1] was 13.5 nM; in experiment [2], ~0.6 nM. Besides, in experiment [1], the “MFI (6.4 nM)” value came out at 64000 MFI. Also, in experiment [3], the affinity, expressed as Kd, was 1 nM.

B2: I23RB278 (antibody, mouse IgG2a, kappa, V domains shown)
VH: EVQLLESGGGLVQPGGSLRLSCAASGFTFSSYAMSWVRQAPGKGLEWVSAISGSGGSTYYADSVKGRFTISRDNSKNTLYLQMNSLRAEDTAVYYCVRGGSLGGGFYFDYWGQGTLVTVSS
VL: not shown
notes: phage display; human V, mouse IgG2a/kappa
Consider B2, for which the binding result in experiment [4] was “no binding”.

B3: I23RB42 (antibody, mouse IgG2a, kappa, V domains shown)
VH: EVQLQQSGAELVKPGASVKISCKASGYSFTDYIMNWVKQSHGKSLEWIGNINPYFGFTSYNQEFKGKATLTVDKSSSTAYMLLNSLTSEDSAVYYCSRGSYYGYETFFDYWGQGTTLTVSS
VL: DIVLTQTAPSVPVTPGESVSISCRSSKSLLHSNGNTYLYWFLQRPGQSPQLLIYRMSNLASGVPDRFSGSGSGTAFTLRISRVEAEDVGVYYCMQHLEYPYTFGSGTRLEIKR
notes: as for B1
As to B3, in experiment [1], the EC50 was 3.1 nM and the “MFI (6.4 nM)” value came to 353000 MFI. For the same molecule, in experiment [2], the midpoint of the response, the EC50, lay at 0.2 nM. Also, the Kd in experiment [3] was ≤ 0.1 nM.

B4: I23RB9 (antibody, mouse IgG2a, kappa, V domains shown)
VH: QVQLVQSGAEVKKPGSSVKVSCKASGGTFSSYAISWVRQAPGQGLEWMGGIIPIFGTANYAQKFQGRVTITADESTSTAYMELSSLRSEDTAVYYCARDRSYSYGLSGLGYYGFDYWGQGTLVTVSS
VL: EIVLTQSPATLSLSPGERATLSCRASQSVSSYLAWYQQKPGQAPRLLIYDASNRATGIPARFSGSGSGTDFTLTISSLEPEDFAVYYCQQRSNWPLTFGQGTKVEIKR
notes: as for B2
For B4, in experiment [5], the “MFI @ 20 nM” value was found to be 86 MFI.

B5: I23RB330 (antibody, mouse IgG2a, kappa, V domains shown)
VH: B4 VH
VL: B4 VL with W94T
notes: as for B2
For the molecule B5, the binding result in experiment [4] was “no binding”.

B6: I23RB153 (antibody, mouse IgG2a, kappa, V domains shown)
VH: EVKLVESGGGLVQPGGSLKLSCAASGFTFSSDTMSWVRQTPEKRLELVAEISSNGGSTYHIDTVKGRFTISRDNAKNTLYLQMSSLKSEDTAMYYCASPGYPWFAYWGQGTTVTVSA
VL: DIVMTQSHRFMSTSVGERVSITCKASQDVGNAVAWYQQKPGQSPKLLIYWTSTRHNGVPDRFTGSGSGTDFTLTISNVQGEDLADYFCQQYNRYPLTFGSGTKLEIKR
notes: as for B1
Regarding B6, in experiment [1], the EC50 is > 50 nM and the “MFI (6.4 nM)” value worked out at 52800 MFI. This molecule also yielded an EC50 in experiment [2] of 4.4 nM. For the same molecule, the dissociation constant (Kd) in experiment [3] stood at 2 nM.

B7: I23RB56 (antibody, mouse IgG2a, kappa, V domains shown)
VH: EVKLVESGGGLVKPGGSLKLSCAASGFTFSSYAMSWVRQTPEKRLEWVAAINSNDGSTYYPDTVKDRFTISRDNAKNTLYLQMSSLRSEDTALYYCARHFLYFSNFYYFDYWGQGTTLTVSS
VL: DIVMTQSPKFLLVSAGDRVTITCKASQSVSNDVAWYQQKPGQSPKLLIYYASNRYTGVPDRFTGSGYGTVFTFTISTVQAEDLAVYFCQQDYSSPFTFGSGTKLEIKR
notes: as for B1
B7: the EC50 in experiment [1] was > 50 nM; in experiment [2], 0.7 nM. Besides, the “MFI (6.4 nM)” value in experiment [1] came out at 118000 MFI. Further, the Kd in experiment [3] lay in the range of 26 to 68 nM.

B8: I23RB45 (antibody, mouse IgG2a, kappa, V domains shown)
VH: QVTLKESGPGILQPSQTLSLTCSFSGFSLSTYGMGVSWIRQPSGKGLEWLAHIYWDDDKRYNPSLKSRLTISKDTSNNQVFLKITSVDTADTATYYCAQRALPLLGQKAPFDYWGQGTTLTVSS
VL: DIVLTQSQKFISTSVGDRVSITCKASQNVRTAVAWYQQKPGQSPKLLIYLPSNRHTGVPDRFTGSGSGTVFTLTISNVQSEDQADYFCLQHWNYPLTFGAGTKLELKR
notes: as for B1
For B8, in experiment [1], a half-maximal response (EC50) required 4.5 nM and the “MFI (6.4 nM)” value amounted to 228000 MFI. The same molecule displayed an EC50 in experiment [2] of 0.4 nM. This molecule also had a Kd in experiment [3] of 2 nM.

B9: I23RB30 (antibody, mouse IgG2a, kappa, V domains shown)
VH: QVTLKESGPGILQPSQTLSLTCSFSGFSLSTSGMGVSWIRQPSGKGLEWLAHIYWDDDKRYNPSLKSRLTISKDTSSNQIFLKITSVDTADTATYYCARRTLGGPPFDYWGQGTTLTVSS
VL: B8 VL with K9R, I11M, V29I, L46A, V70D, Q83L
notes: as for B1
On to B9, for which, in experiment [1], the EC50 was 8.3 nM and the “MFI (6.4 nM)” value worked out at 185000 MFI. The molecule further displayed an EC50 in experiment [2] of 1.2 nM. The same molecule registered a Kd in experiment [3] of 36 to 46 nM.

B10: I23RB6 (antibody, mouse IgG2a, kappa, V domains shown)
VH: QVQLVQSGAEVKKPGSSVKVSCKASGGTFSSYAISWVRQAPGQGLEWMGGIIPIFGTANYAQKFQGRVTITADESTSTAYMELSSLRSEDTAVYYCARGRYIRSYDYFDYWGQGTLVTVSS
VL: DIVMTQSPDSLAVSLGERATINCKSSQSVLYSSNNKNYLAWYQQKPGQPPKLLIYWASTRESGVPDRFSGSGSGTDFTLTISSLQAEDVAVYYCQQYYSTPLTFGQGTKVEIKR
notes: as for B2
Consider B10, for which the “MFI @ 20 nM” value in experiment [5] was 139 MFI.

B11: I23RB328 (antibody, mouse IgG2a, kappa, V domains shown)
VH: B10 VH
VL: B4 VL with I58V, S67T, E79Q, F83V, S92N, N93S, W94T
notes: as for B2
Turning to B11, in experiment [4], the binding result is recorded as “no binding”.

B12: I23RB318 (antibody, mouse IgG2a, kappa, V domains shown)
VH: QVQLVQSGAEVKKPGSSVKVSCKASGGTFSSYAISWVRQAPGQGLEWMGGIIPIFGTANYAQKFQGRVTITADESTSTAYMELSSLRSEDTAVYYCARVRARHRGSFDYWGQGTLVTVSS
VL: DIQMTQSPSSLSASVGDRVTITCRASQSIDRWLNWYQQKPGKAPKLLIYYASSLQSGVPSRFSGSGSGTDFTLTISSLQPEDFATYYCQQSYSTPLTFGQGTKVEIKR
notes: as for B2
As to B12, in experiment [1], the half-maximal effective concentration (EC50) came to 7.1 nM and the “MFI (6.4 nM)” value came out at 196000 MFI. In experiment [2], this molecule yielded an EC50 of 0.5 nM. Moreover, the Kd in experiment [3] was determined as 21 nM.

B13: I23RB332 (antibody, mouse IgG2a, kappa, V domains shown)
VH: QVQLQQPGAELVMPGASVKLSCKASGYTFTSYWMHWVKQRPGQGLEWIGEIDPSDSYTNYNQKFKGKSTLTVDKSSSTAYMQLSSLTSEDSAVYYCARSYAFDYWGQGTTVTVSS
VL: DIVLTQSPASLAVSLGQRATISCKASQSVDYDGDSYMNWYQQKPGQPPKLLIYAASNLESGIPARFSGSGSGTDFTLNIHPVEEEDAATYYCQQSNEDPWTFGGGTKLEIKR
notes: phage display; mouse V, mouse IgG2a/kappa
In the case of B13, the binding result in experiment [4] is “no binding”.
